Experimental data as given in publication PMC7596997.

Assays:
[1] = biological target: Tom70cd pretreated with N-ethylmaleimide (NEM) (yeast (Saccharomyces cerevisiae)) (UniProt P07213); experiment: pull-down; purified His-Tom70cd (50 pmol per 100 μl) pre-bound to Ni-NTA beads, incubated 40 min at 30 °C with typically 7% (v/v) reticulocyte lysate containing the [35S]-labelled protein; 10 mM MOPS/KOH, 20 mM imidazole, 150 mM KCl, 1% BSA, pH 7.2; eluted with 1 M imidazole, SDS-PAGE, phosphorimager; in some samples the bead-bound Tom70cd was pretreated with NEM and washed before the lysate was added
[2] = biological target: cytosolic domain of yeast Tom70 (His-Tom70_(38–617)) (yeast (Saccharomyces cerevisiae)) (UniProt P07213); experiment: as above
[3] = biological target: Tom70 in the outer membrane of isolated yeast mitochondria (wild type) (S. cerevisiae (endogenous in isolated yeast mitochondria)) (UniProt P07213)
Chain of Tom70 in the outer membrane of isolated yeast mitochondria (wild type) (S. cerevisiae (endogenous in isolated yeast mitochondria)) (P07213 whole entry): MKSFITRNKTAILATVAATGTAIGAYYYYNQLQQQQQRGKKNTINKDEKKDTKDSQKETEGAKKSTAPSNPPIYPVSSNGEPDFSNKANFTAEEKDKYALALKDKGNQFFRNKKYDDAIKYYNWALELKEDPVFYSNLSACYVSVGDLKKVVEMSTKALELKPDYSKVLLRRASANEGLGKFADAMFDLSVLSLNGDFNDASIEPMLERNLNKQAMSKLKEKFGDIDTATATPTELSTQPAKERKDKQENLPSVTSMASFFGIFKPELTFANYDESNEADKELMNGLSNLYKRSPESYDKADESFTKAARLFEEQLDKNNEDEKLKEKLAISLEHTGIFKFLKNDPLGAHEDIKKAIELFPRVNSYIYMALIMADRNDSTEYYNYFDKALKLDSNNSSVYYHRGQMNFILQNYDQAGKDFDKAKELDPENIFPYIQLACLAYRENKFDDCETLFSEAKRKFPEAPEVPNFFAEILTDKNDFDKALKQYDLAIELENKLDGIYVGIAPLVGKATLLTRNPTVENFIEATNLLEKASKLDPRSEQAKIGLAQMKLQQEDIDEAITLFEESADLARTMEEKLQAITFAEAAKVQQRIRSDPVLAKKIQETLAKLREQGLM

Chain of AAC_(Δpos) (AAC with all positively charged residues of the matrix loops exchanged against glycine) (P02723 whole entry, stated change not applied): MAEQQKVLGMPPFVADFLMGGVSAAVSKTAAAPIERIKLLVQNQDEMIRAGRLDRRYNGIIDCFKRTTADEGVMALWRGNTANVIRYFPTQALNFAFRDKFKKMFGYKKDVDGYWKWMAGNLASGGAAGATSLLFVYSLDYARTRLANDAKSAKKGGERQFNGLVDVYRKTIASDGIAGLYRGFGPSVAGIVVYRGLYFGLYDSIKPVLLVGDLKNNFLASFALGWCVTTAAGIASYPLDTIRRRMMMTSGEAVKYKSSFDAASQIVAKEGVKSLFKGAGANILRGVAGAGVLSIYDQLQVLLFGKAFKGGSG
Chain of cytosolic domain of yeast Tom70 (His-Tom70_(38–617)) (yeast (Saccharomyces cerevisiae)) (P07213 38-617): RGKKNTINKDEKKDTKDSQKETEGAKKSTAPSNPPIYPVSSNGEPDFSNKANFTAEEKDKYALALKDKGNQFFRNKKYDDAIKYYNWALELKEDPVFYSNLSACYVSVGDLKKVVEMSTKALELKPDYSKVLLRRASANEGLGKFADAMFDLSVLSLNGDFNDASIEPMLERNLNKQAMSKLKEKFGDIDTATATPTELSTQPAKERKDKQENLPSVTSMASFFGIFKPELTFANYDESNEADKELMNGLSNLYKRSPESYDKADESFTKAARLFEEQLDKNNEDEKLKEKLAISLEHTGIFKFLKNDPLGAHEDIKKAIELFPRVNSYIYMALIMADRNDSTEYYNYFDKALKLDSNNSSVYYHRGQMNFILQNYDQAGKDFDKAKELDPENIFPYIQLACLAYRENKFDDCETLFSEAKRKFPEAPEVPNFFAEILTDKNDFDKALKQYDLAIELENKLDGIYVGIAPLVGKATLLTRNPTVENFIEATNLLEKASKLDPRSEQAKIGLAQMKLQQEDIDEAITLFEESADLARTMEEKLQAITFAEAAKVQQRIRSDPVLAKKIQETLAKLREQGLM
Chain of ADP/ATP carrier (AAC) of Neurospora crassa, wild type (P02723 whole entry): as the sequence (P02723 whole entry, stated change not applied) above
Chain of Tom70cd pretreated with N-ethylmaleimide (NEM) (yeast (Saccharomyces cerevisiae)) (P07213 38-617): as the sequence (P07213 38-617) above
Chain of S. cerevisiae AAC2 (P18239 whole entry, the tested form may be a part): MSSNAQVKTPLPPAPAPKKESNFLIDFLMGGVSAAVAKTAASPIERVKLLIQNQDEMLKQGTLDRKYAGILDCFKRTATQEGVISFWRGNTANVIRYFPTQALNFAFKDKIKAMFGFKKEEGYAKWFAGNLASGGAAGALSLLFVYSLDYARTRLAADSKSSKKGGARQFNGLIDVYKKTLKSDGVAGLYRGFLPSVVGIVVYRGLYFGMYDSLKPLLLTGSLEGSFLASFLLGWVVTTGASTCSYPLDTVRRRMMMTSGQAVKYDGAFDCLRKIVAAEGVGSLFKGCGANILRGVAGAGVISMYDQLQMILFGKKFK

**Q.** With “ADP/ATP carrier (AAC) of Neurospora crassa, wild type (from UniProt P02723 1-313) (natural protein)” as the substance, how does the reduction of the binding efficiency against untreated Tom70cd [1] read?
**A.** 50%

**Q.** “AAC_(Δpos) (AAC with all positively charged residues of the matrix loops exchanged against glycine) (from UniProt P02723 1-313) (natural protein)” was tested. Which percent of the total radiolabelled protein bound [2] did it give?
**A.** 15 to 20%

**Q.** “S. cerevisiae AAC2 (from UniProt P18239 1-318) (natural protein)” was tested. Which decrease in binding of [35S]-AAC2 to isolated mitochondria containing wild type Tom70, pretreated with 2 mM NEM against untreated (Fig. 3f) [3] did it give?
**A.** 50%
